Results taken from patent US20260078197A1 (BIOCYTOGEN PHARMACEUTICALS BEIJING, published 2026).

T1: Macaca fascicularis (crab-eating macaque) TFR1 expressed on CHO-S cells (Macaca fascicularis (crab-eating …))
T1 construct: CHO-S cells transfected with a vector expressing fasTFR1; also called fasTFR1; CHO-S-fasTFR1 cells
T1 chain: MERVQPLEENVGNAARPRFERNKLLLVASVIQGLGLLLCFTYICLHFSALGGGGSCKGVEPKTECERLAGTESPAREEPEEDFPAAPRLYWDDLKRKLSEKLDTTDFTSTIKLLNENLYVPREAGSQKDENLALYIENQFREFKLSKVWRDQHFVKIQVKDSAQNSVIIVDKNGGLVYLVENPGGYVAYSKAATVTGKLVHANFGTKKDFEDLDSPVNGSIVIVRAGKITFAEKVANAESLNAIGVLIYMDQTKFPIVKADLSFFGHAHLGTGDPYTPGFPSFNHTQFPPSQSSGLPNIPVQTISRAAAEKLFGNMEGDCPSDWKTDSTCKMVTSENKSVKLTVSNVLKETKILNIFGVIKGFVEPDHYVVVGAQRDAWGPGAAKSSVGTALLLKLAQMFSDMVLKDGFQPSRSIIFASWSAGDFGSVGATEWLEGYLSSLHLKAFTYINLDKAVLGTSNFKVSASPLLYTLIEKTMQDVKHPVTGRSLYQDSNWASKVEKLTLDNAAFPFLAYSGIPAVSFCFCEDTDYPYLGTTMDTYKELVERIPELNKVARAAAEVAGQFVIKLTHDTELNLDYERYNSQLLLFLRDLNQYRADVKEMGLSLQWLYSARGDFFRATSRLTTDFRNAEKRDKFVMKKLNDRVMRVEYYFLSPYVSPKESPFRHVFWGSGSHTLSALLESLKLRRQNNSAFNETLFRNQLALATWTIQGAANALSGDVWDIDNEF

T2: His-tagged monkey TFR1 protein (monkey (Macaca fascicularis))
T2 construct: Bought protein; The order of the tag and the receptor part is not known; also called fasTFR1-His; ACROBiosystems Cat #: TFR-C524a; not shown: His tag
T2 chain: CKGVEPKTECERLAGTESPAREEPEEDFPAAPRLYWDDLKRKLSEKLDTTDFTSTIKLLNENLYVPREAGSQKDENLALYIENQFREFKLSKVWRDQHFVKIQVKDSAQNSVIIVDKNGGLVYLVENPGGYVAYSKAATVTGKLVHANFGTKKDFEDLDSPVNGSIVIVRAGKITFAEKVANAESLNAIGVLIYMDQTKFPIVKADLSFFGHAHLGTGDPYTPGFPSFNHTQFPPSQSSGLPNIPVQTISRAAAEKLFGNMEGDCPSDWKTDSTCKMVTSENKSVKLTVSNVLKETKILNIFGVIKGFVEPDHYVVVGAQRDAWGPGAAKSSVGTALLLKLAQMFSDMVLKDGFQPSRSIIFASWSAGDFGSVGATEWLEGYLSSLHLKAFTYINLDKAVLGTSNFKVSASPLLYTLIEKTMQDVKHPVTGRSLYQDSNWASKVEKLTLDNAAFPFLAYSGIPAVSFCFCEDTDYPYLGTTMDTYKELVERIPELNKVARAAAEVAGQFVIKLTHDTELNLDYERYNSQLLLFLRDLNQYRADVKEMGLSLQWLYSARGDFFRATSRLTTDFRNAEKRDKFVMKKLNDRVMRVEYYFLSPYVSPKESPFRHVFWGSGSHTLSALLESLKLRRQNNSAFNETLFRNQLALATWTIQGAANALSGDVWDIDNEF


Legend:
[1] = target: T3, His-tagged human TFR1 (transferrin receptor 1) protein (human, UniProt P02786 89-760); experiment: BLI (Octet) binning; hTFR1-His captured on HIS1K; ratio = binding of analyte 2 / binding of analyte 1; competitor (analyte 1, bound first): 24A1
T3 construct: Bought protein; The order of the tag and the receptor part is not known; also called hTFR1-His; ACROBiosystems Cat #: CD1-H5243; not shown: His tag
T3 sequence (P02786 89-760 limits assumed): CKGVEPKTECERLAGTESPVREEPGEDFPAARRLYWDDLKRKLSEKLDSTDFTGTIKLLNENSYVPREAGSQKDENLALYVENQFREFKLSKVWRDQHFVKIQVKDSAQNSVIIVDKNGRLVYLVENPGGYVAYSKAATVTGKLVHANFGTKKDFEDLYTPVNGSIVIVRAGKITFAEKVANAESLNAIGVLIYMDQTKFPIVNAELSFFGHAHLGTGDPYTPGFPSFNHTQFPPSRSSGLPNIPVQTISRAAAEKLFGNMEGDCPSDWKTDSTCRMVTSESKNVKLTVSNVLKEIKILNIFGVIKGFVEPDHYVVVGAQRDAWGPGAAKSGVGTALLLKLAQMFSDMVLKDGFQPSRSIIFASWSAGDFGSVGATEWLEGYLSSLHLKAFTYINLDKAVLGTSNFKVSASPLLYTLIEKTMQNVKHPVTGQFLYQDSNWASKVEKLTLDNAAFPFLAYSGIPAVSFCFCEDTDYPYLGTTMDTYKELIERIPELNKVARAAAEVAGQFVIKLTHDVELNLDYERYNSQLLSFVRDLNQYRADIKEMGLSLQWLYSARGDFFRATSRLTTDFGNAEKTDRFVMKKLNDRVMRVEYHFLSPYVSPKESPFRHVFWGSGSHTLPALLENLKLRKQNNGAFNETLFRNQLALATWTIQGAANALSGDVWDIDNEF
Procedure: (§1) Relative positions of target protein epitope between a pair of purified anti-TFR1 antibodies were analyzed by Biolayer Interferometry (BLI) using ForteBio Octet system at 30° C. 1×HBS-EP+ buffer (10 mM 4-(2-hydroxyethyl)-1-piperazineethanesulfonic acid (HEPES), 150 mM NaCl, 3 mM ethylenediaminetetraacetic acid (EDTA) and 0.05% P20, pH7.4) diluted from HBS-EP+ buffer (10×) was used as the running buffer throughout the experiment. About 10 μg/mL of hTFR1-His protein was captured by HIS1K (Anti-Penta-HIS) for 200 seconds, and 200 nM of antibody (analyte 1) was injected at a flow rate of 30 μL/min to bind the ligand. Another antibody (analyte 2) was injected under the same conditions to determine whether the binding of different antibodies interfered with each other. The binding time was 300 seconds for each antibody.
(§2) The binding value of each antibody was obtained using Data Analysis HT 12.0. To quantify the interference of one antibody binding to another, a binding ratio was calculated to compare each pair of antibodies. The binding ratio is defined as the binding value of the second antibody (analyte 2), divided by the binding value of the first antibody (analyte 1).

[2] = target: T1, Macaca fascicularis (crab-eating …); experiment: flow cytometry on CHO-S-fasTFR1 cells; anti-hIgG-Fc Alexa Fluor 647 secondary
Procedure: (§3) CHO-S-hTFR1 cells or CHO-S-fasTFR1 cells were transferred to a 96-well plate at a density of 10⁵ cells/well respectively. Serially diluted sample anti-TFR1 antibodies were added to the 96-well plate, and incubated at 4° C. for 30 minutes. PBS was used as a negative control (NC).

[3] = target: T3, His-tagged human TFR1 (transferrin …); experiment: BLI (Octet) binning; hTFR1-His captured on HIS1K; ratio = binding of analyte 2 / binding of analyte 1; competitor (analyte 1, bound first): 24G5
Procedure: as §1, §2

[4] = target: T3, His-tagged human TFR1 (transferrin …); experiment: BLI (Octet) binning; hTFR1-His captured on HIS1K; ratio = binding of analyte 2 / binding of analyte 1; competitor (analyte 1, bound first): 24C9
Procedure: as §1, §2

[5] = target: T3, His-tagged human TFR1 (transferrin …); experiment: BLI (Octet) binning; hTFR1-His captured on HIS1K; ratio = binding of analyte 2 / binding of analyte 1; competitor (analyte 1, bound first): 23B8
Procedure: as §1, §2

[6] = target: T3, His-tagged human TFR1 (transferrin …); experiment: BLI (Octet) binning; hTFR1-His captured on HIS1K; ratio = binding of analyte 2 / binding of analyte 1; competitor (analyte 1, bound first): JR141-N
Procedure: as §1, §2

[7] = target: T4, human TFR1 expressed on CHO-S cells (human, UniProt P02786 1-760); experiment: flow cytometry on CHO-S-hTFR1 cells; anti-hIgG-Fc Alexa Fluor 647 secondary
T4 construct: CHO-S cells transfected with a vector expressing human TFR1; also called hTFR1; CHO-S-hTFR1 cells
T4 sequence (P02786 whole entry): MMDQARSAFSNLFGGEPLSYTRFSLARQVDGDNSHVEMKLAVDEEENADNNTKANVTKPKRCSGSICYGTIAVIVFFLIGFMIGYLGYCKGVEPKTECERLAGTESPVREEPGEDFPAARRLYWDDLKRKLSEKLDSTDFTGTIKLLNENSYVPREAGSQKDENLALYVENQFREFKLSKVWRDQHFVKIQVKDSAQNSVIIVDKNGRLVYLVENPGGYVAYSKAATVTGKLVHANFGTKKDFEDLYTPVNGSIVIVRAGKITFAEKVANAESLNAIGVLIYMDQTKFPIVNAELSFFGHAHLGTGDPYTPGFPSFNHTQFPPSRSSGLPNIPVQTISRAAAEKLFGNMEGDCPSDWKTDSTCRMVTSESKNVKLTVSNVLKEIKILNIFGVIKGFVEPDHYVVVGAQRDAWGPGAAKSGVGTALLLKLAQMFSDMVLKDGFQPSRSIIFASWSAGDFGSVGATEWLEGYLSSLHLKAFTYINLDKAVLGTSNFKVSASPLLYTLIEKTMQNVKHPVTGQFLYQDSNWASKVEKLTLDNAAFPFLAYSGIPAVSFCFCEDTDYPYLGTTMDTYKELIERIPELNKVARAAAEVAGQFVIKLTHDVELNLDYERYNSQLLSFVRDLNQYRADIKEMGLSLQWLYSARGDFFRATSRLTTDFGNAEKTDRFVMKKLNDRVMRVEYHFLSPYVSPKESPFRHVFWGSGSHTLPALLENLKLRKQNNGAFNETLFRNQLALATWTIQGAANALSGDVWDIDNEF
Procedure: as §3

[8] = target: T3, His-tagged human TFR1 (transferrin …); experiment: SPR, Biacore 8K; antibody captured on Protein A chip, hTFR1-His as analyte; 1:1 Langmuir fit
Procedure: (§4) Purified anti-TFR1 antibodies was captured on the Protein A chip (Series S Sensor Chip Protein A) for the detection. Purified anti-TFR1 antibodies (1 μg/mL) was loaded at 10 μL/min to bind to hTFR1-His and fasTFR1-His (200 nM). The flow rate was 30 μL/min. The binding and dissociation time were set to 180 seconds and 600 seconds, respectively. The chip was regenerated after the last injection of each titration with a glycine solution (pH 2.0) at […] for 30 seconds.
(§5) As a person of ordinary skill in the art would understand, the same method with appropriate adjustments for parameters (e.g., antibody concentration) was performed for each tested antibody.

[9] = target: T2, His-tagged monkey TFR1 protein; experiment: SPR, Biacore 8K; antibody captured on Protein A chip, fasTFR1-His as analyte; 1:1 Langmuir fit
Procedure: as §4, §5

Row | Binder | binding ratio [1] | Percentage of Positive Cells [2] [%] | binding ratio [3] | binding ratio [4] | binding ratio [5] | binding ratio [6] | Percentage of Positive Cells [7] [%] | Kd [8] [nM] | koff [8] [s⁻¹] | kon [8] [M⁻¹ s⁻¹] | Kd [9] [nM] | koff [9] [s⁻¹] | kon [9] [M⁻¹ s⁻¹]
1 | JR141-N (antibody, V domains shown, also called positive control; JR141 VH and VL on human IgG1 N297A) VH: EVQLVQSGAEVKKPGESLKISCKGSGYSFTNYWLGWVRQMPGKGLEWMGDIYPGGDYPTYSEKFKVQVTISADKSISTAYLQWSSLKASDTAMYYCARSGNYDEVAYWGQGTLVTVSS VL: DIVMTQTPLSLSVTPGQPASISCRSSQSLVHSNGNTYLHWYLQKPGQSPQLLIYKVSNRFSGVPDRFSGSGSGTDFTLKISRVEAEDVGVYYCSQSTHVPWTFGQGTKVEIK | 0 | 37.2 | 0 | 1.1 | 0.7 | 0 | 45 |  |  |  |  |  | 
2 | 24A1 (antibody, human IgG1, V domains shown, Heavy-chain antibody without light chain; also called anti-TFR1 antibody 24A1) VH: EVQLVESGGGLVQPGGSLRLTCAASGFTFSSYAMSWVRQAPGKGLERVSEISGSGSSTNYADSVKGRFTISRDNSKNTLYLQMNSLRAEDTAVYYCAKDDSSGWAFNIWDQGTVVTVSS | 0.1 | 50.9 | 0.1 | 0.1 | 0 | 0.3 | 56.4 | 2.93 | 7.68e-05 | 26200 | 2.32 | 0.000101 | 43600
3 | 24G5 (antibody, human IgG1, V domains shown, Heavy-chain antibody without light chain; also called anti-TFR1 antibody 24G5) VH: QLQLQESGGGLVQPGGSLRLTCAASGFTFSSFAMSWVRQAPGKGLERVSEISDSGGNTYYADSVKGRFTISRDNSKNTLYLQMNSLRAEDTAVYYCAKDDSSGWAFNIWDQGTVVTVSS | 0 | 51.2 | 0 | 0 | 0 | 0.2 | 54.3 | 2.05 | 8.68e-05 | 42400 | 1.39 | 8.79e-05 | 63300
4 | 24C9 (antibody, human IgG1, V domains shown, Heavy-chain antibody without light chain; also called anti-TFR1 antibody 24C9) VH: EVQLVQSGGGVVQPGRSLRLSCAASGFTLSSYGMYWVRQAPGKGREWVAFIRFDESKKYYADSVKGRFTISRDNSKNTLYLQMNSLRAEDTAVYYCARDGEGGYCTNGVCHGLDVWGQGTTVTVSS | 0.1 |  | 0.2 | 0 | 0.6 | 0.8 | 45.8 | 14.3 | 0.000383 | 26800 |  |  | 
5 | 23B8 (antibody, V domains shown, Heavy-chain antibody without light chain; also called anti-TFR1 antibody 23B8) VH: QVTLKESGGGLVKPGGSLRLSCAASGFPFSNAWMNWVRQAPGKGLEWVGHIKSKTDGGTTDYAAPVKGRFTISRDDSKNMVFLQMNSLKTEDTAVYYCTTDRAYCGGDCSHYYYHDLDVWGQGTTVTVSS | 0.2 | 39.6 | 0.3 | 1.4 | 0.1 | 1.1 | 38.8 | 8.73 | 0.000132 | 15100 | 19.5 | 0.00799 | 410000
